Measured values published in patent US20190300590A1 (PROTAGONIST THERAPEUTICS, published 2019).
Read-outs that look alike come from different tables or passages of the source. *1 amine or outer side, *2 acyl side, *3 side chain or, on linkers, in order; H or OH if unused. Bridges are numbered along the chain shown (N, C = ends). Primed or numbered codes have the meaning given here. [ ]: non-standard residue; d: D form. Phe(4-OMe)(3) = O-methyl-L-tyrosine (4-methoxy-L-phenylalanine), COc1ccc(C[C@H](N[*:1])C(=O)[*:2])cc1; Phe(4-OMe) = 4-methoxy-L-phenylalanine (O-methyl-L-tyrosine), COc1ccc(C[C@H](N[*:1])C(=O)[*:2])cc1; Trp(6-Cl) = N[C@@H](Cc1c[nH]c2cc(Cl)ccc12)C(=O)O; 2Nal = N[C@@H](Cc1ccc2ccccc2c1)C(=O)O; AEF = NCCOc1ccc(C[C@H](N)C(=O)O)cc1; hLeu = CC(C)CC[C@H](N)C(=O)O; αMeK = C[C@](N)(CCCCN)C(=O)O; Abu = CC[C@H](N)C(=O)O

Tests used:
Rat IL-23R_huFC [1] = target: T1, Rat IL-23R_huFC (rat, UniProt F1LX96 39-369); test: rat IL-23R competitive binding ELISA
T1 sequence: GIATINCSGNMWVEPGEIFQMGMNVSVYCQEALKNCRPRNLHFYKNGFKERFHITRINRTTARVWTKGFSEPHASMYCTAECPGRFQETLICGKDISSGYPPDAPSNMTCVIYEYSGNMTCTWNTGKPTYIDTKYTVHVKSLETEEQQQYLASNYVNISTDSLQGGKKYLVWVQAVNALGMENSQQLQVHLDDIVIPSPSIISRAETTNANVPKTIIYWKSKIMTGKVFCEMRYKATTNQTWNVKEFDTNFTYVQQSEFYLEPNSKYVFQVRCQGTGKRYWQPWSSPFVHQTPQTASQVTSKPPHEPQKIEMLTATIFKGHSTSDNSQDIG

Rat IL-23R_huFC [2] = target: Rat IL-23R_huFC (rat); test: rat ELISA vs IL-23
[3] = target: T2, IL-23R on human cells (IL-23R-expressing DB cells; human NK cells) (human, UniProt Q5VWK5 24-629); test: cell-based or functional assay
T2 sequence (looked up): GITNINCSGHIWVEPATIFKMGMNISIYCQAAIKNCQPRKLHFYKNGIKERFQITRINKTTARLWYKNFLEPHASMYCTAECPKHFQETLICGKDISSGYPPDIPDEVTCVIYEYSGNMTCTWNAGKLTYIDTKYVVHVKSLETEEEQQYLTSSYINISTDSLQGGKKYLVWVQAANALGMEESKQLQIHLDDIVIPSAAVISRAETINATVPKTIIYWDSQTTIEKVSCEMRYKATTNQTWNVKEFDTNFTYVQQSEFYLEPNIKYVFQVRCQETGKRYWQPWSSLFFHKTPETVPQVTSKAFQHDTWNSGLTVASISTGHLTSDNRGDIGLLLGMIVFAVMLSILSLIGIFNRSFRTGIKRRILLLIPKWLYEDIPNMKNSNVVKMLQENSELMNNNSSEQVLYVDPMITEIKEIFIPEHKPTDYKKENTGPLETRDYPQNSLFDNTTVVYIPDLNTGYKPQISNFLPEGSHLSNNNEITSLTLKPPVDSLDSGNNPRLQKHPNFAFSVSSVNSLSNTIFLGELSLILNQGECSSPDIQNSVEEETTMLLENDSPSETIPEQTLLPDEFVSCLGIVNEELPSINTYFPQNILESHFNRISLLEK

IL23R_huFC [4] = target: T3, IL23R_huFC (human, UniProt Q5VWK5 24-353); test: human ELISA vs IL-23
T3 sequence (looked up): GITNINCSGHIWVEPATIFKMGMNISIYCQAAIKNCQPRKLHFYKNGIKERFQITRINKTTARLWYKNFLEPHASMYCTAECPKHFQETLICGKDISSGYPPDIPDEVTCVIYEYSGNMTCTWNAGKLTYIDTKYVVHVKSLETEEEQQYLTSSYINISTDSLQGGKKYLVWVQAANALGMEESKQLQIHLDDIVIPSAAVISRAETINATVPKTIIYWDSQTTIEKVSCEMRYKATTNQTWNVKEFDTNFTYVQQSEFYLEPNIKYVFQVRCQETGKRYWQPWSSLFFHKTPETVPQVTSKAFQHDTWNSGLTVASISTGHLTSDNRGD

IL23R_huFC [5] = target: T4, IL23R_huFC (human, UniProt Q5VWK5 24-353); test: IL23-IL23R competitive binding ELISA
T4 sequence (looked up): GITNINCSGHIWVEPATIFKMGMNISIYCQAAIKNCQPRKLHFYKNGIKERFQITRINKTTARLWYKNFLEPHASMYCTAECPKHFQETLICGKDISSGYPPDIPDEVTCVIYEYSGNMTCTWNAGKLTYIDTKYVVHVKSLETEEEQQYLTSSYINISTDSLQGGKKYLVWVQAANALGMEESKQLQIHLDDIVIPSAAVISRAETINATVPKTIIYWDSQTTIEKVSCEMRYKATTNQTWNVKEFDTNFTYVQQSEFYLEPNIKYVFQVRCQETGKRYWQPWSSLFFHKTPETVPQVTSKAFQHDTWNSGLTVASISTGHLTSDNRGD

Rat IL-23R_huFC [6] = target: T1, Rat IL-23R_huFC; test: rat IL-23R competitive binding ELISA; remark: listed apart in the source
IL23R_huFC [7] = target: T3, IL23R_huFC; test: human ELISA vs IL-23; remark: listed apart in the source
IL-23R on DB cells = target: T5, IL-23R on DB cells (human, UniProt Q5VWK5 24-629); test: cell-based or functional assay
T5 sequence (looked up): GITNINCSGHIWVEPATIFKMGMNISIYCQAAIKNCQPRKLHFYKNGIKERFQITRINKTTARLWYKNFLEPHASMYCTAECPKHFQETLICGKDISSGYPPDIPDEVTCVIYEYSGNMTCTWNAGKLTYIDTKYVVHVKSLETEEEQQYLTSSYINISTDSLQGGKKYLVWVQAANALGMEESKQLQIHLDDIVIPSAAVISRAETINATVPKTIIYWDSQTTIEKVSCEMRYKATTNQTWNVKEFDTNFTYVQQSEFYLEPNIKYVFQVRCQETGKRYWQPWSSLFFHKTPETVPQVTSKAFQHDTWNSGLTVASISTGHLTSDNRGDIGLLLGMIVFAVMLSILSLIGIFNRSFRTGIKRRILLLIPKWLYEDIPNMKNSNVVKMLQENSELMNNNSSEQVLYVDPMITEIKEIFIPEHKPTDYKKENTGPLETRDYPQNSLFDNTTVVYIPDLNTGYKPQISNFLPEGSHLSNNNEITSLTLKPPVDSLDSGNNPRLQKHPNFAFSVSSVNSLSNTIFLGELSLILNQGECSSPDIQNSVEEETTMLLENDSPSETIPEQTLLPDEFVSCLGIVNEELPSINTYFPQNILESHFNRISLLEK

Ac-CQTWQCYW[hLeu]EEG-NH2 (disulfide 1-6 (inferred)) [Ac-CQTWQCYW-[hLeu]-EEG-NH2]
IC50 (Rat IL-23R_huFC [1]): 53 nM

Ac-[2Nal][Abu]QTWQC[AEF][2Nal][αMeK]ENN-NH2 (thioether 2-7) [Ac-[2-Nal]-Cyclo-[[Abu]-QTWQC]-[Phe[4-(2-aminoethoxy)]]-[2-Nal]-[α-MeLys]-ENN-NH2]
IC50 (Rat IL-23R_huFC [2]): 10 to 25 nM | pStat3 HTRF IC50 [3]: < 10 nM | IC50 (IL23R_huFC [4]): < 10 nM

XQTWQXYWXENG (Ac; Pen-Pen disulfide; α-MeOrn; NH2) [Ac-[Pen]-QTWQ-[Pen]-YW-[α-MeOrn]-ENG-NH2]
IC50 (IL23R_huFC [5]): 100 to 1000 nM | IC50 (Rat IL-23R_huFC [6]): 100 to 1000 nM

Ac-[Abu]QT[Trp(6-Cl)]QC[AEF][2Nal][αMeK]ENG-NH2 (thioether 1-6) [Ac-Cyclo-[[Abu]-QT-[6-chloroTrp]-QC]-[Phe[4-(2-aminoethoxy)]]-[2-Nal]-[α-MeLys]-ENG-NH2]
IC50 (Rat IL-23R_huFC [2]): 10 to 25 nM | IC50 (IL23R_huFC [7]): 10 to 25 nM | pStat3 HTRF IC50 [3]: < 10 nM

Ac-[Abu]QTWQC[Phe(4-OMe)(3)][2Nal][αMeK]K(Ac)NS-NH2 (thioether 1-6) [Ac-Cyclo-[[Abu]-QTWQC]-[Phe(4-OMe)]-[2-Nal][α-MeLys]-[Lys(Ac)]-NS-NH2]
IC50 (Rat IL-23R_huFC [2]): 10 to 25 nM | IC50 (IL23R_huFC [7]): 10 to 25 nM | pStat3 HTRF IC50 [3]: < 10 nM

Ac-[Abu]QTWQC[Phe(4-OMe)(3)][2Nal][αMeK]K(Ac)NA-NH2 (thioether 1-6) [Ac-Cyclo-[[Abu]-QTWQC]-[Phe(4-OMe)]-[2-Nal][α-MeLys]-[Lys(Ac)]-NA-NH2]
IC50 (Rat IL-23R_huFC [2]): 10 to 25 nM | pStat3 HTRF IC50 [3]: < 10 nM | IC50 (IL23R_huFC [4]): < 10 nM

Ac-[Abu]QTWQC[AEF][2Nal][αMeK]DNG-NH2 (thioether 1-6) [Ac-Cyclo-[[Abu]-QTWQC]-[Phe[4-(2-aminoethoxy)]]-[2-Nal][α-MeLys]-DNG-NH2]
IC50 (Rat IL-23R_huFC [2]): 10 to 25 nM | pStat3 HTRF IC50 [3]: < 10 nM | IC50 (IL23R_huFC [4]): < 10 nM

Ac-CSTWECYWHTYG-NH2 (disulfide 1-6) [Ac-CSTWECYWHTYG-NH2]
IC50 (Rat IL-23R_huFC [1]): 286 nM

XQTWQXYWKKNG (Ac; Pen-Pen disulfide; α-MeLys; Lys(Ac); NH2) [Ac-[Pen]-QTWQ-[Pen]-YW-[α-MeLys]-[Lys(Ac)]-NG-NH2]
IC50 (IL23R_huFC [5]): 100 to 1000 nM

B1: gallic acid-[Pen]-QTWQ[Pen]-[Phe(4-OMe)]-[2-Nal]-[α-MeLys]-[Lys(Ac)]-NG-NH2 (peptide)
peptide: XQTWQXFXKKNG
modifications: N-terminal gallic acid; Pen-Pen disulfide; Phe(4-OMe); 2-Nal; α-MeLys; Lys(Ac); NH2
IC50 (IL23R_huFC [5]): 1000 to 10000 nM

XQTWQXYWLENG (Ac; Pen-Pen disulfide; hLeu; NH2) [Ac-[Pen]-QTWQ-[Pen]-YW-[hLeu]-ENG-NH2]
IC50 (IL23R_huFC [5]): 100 to 1000 nM

Ac-[Abu]QTWQC[Phe(4-OMe)(3)][2Nal][αMeK]K(Ac)NAE-NH2 (thioether 1-6) [Ac-Cyclo-[[Abu]-QTWQC]-[Phe(4-OMe)]-[2-Nal][α-MeLys]-[Lys(Ac)]-NAE-NH2]
IC50 (Rat IL-23R_huFC [2]): 10 to 25 nM | pStat3 HTRF IC50 [3]: < 10 nM | IC50 (IL23R_huFC [4]): < 10 nM

Ac-CQTWQCYW[hLeu]EPG-NH2 (not fully specified (bridges); cysteine pairing not given here) [Ac-CQTWQCYW-[hLeu]-EPG-NH2]
IC50 (Rat IL-23R_huFC [1]): 140 nM

Ac-CQTWQCYW[hLeu]K(Ac)NG-NH2 (cysteine pairing not given here) [Ac-CQTWQCYW-[hLeu]-[Lys(Ac)]-NG-NH2]
IC50 (Rat IL-23R_huFC [1]): 32 nM

Ac-CTTWQCYW[hLeu]ENG-NH2 (disulfide 1-6 (inferred)) [Ac-CTTWQCYW-[Leu]-ENG-NH2]
IC50 (Rat IL-23R_huFC [1]): 28 nM

XQTWQXYWLENG (Ac; Pen-Pen disulfide; α-MeLeu; NH2) [Ac-[Pen]-QTWQ-[Pen]-Y-[α-MeLeu]-ENG-NH2]
pStat3 HTRF IC50 (IL-23R on DB cells): 10 to 25 nM | IC50 (IL23R_huFC [5]): 25 to 100 nM | IC50 (Rat IL-23R_huFC [6]): 100 to 1000 nM

Ac-[Abu]QTWQC[Phe(4-OMe)]W[αMeK]K(Ac)NG-NH2 (thioether 1-6) [Ac-Cyclo-[[Abu]-QTWQC]-[Phe(4-OMe)]-W-[α-MeLys]-[Lys(Ac)]-NG-NH2]
IC50 (Rat IL-23R_huFC [2]): 10 to 25 nM | IC50 (IL23R_huFC [7]): 10 to 25 nM
